Stoichiometry N data for one substance are collected here from paper PMC3988567.

This assay deals with ZnF-UBP domain from USP5 (human) (UniProt P45974). In words: ITC. On the technique in general: In ITC the heat of successive injections is recorded.
ZnF-UBP domain from USP5 (human), sequence (P45974 163-291): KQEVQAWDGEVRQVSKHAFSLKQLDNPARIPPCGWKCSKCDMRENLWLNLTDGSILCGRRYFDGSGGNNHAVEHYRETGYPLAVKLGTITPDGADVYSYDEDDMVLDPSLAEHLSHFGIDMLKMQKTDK

“ubiquitin (from UniProt P0CG48 1-76) (natural protein)” yielded a stoichiometry N of 1.

Usually stoichiometry N stands for a count of units in the complex or per binding partner.
